Source: publication PMC7380208

Target: Flt3 Receptor Interacting Lectin (FRIL) from Lablab purpureus (Lablab purpureus) (UniProt Q9ZTA9)
Assay: SEC-MALS

With “Flt3 Receptor Interacting Lectin (FRIL) from Lablab purpureus (from UniProt Q9ZTA9) (natural protein)” the stoichiometry N was 4.
